Key:
Assay in all cases: cell-based or functional assay
[1] = target: Hemagglutinin of H1N1 A/California/07/2009 virus (Influenza A virus A/California/07/2009 …)
[2] = target: Hemagglutinin of H16-DE09 virus (Influenza A virus (H16-DE09))
[3] = target: Hemagglutinin of H1-WS33 virus (Influenza A virus (H1-WS33))
[4] = target: Hemagglutinin of H13-MD77 virus (Influenza A virus (H13-MD77))
[5] = target: Hemagglutinin of H9-RG26 virus (Influenza A virus (H9-RG26))
[6] = target: Hemagglutinin of H1-IVR148 virus (Influenza A virus (H1-IVR148))

B1: H1H11729P (antibody, V domains shown)
VH: QVQLVQSGAEVKKSGSSVKVSCKASGGTFSSYAISWVRQAPGQGLEWMGGIIPIFGTPSYAQKFQDRVTITTDESTSTVYMELSSLRSEDTAVYYCARQQPVYQYNMDVWGQGTTVTVSS
VL: DIQMTQSPSSLSASVGDRVTITCRASQGIRNNLGWYQQKPLKAPKRLIYAASSLQSGVPSRFSGSGSGTEFTLTISSLQPEDFATYYCLQYNNYPWTFGQGTKVEIK
With B1 as the binder, how does the “IC50 (nM), cell viability microneutralization assay (MDCK)” value (shortened to “IC50 (nM)”) [1] read?
The value was 4.54 nM.

And the “IC50 (nM)” value [2]?
Its value is 21.6 nM.

And the “IC50 (nM)” value [3]?
The value was 2.47 nM.

What about the “IC50 (nM)” value [4] of the same binder?
Its value is 33.8 nM.

What about the “IC50 (nM)” value [5] of the same binder?
Its value is 14.9 nM.

And the “IC50 (nM)” value [6]?
Its value is 130 nM.

B2: H2aM11829N (antibody, V domains shown)
VH: QVHLVQSGPEVKKPGSSVKVSCKASGVTFISHAISWVRQAPGQGLEWVGGIIAIFGTTNYAQKFQGRVTVTTDKSTNTVYMELSRLRSEDTAIYYCARGETYYEGNFDFWGQGTLVTVSS
VL: VIQMTQSPSSLSASVGDRVTITCRASQSVRSNLNWYQQTPGKAPRLLIYAASSLQSGVPSRFSGSGSGTDFTLTISSLQPEDFATYYCQQSYSTPPITFGQGTRLEIK
B2 was tested. Which “IC50 (nM)” value [1] did it give?
The value was 3.5 nM.

What about the “IC50 (nM)” value [2] of the same binder?
The value was 7.39 nM.

What about the “IC50 (nM)” value [3] of the same binder?
Its value is 1.68 nM.

What about the “IC50 (nM)” value [4] of the same binder?
The value was 2.11 nM.

And the “IC50 (nM)” value [5]?
Its value is 10.2 nM.

And the “IC50 (nM)” value [6]?
The value was 48 nM.

Reference: US20160176953A1 (Regeneron, published 2016)
